Patent publication US20210324028A1 (Pfizer, published 2021)

T1: human IL-2Rβ (human, UniProt P14784 27-240, limits assumed)
T1 construct: also called hIL-2Rβ; IL-2 receptor beta
T1 sequence (looked up): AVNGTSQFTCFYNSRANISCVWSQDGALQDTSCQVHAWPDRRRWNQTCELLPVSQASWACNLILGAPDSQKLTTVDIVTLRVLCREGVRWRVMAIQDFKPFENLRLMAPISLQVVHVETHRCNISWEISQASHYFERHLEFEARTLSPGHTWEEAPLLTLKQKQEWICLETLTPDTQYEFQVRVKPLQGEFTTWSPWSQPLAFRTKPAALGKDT


Assays:
[1] = target: T2, human IL-15Rα (human, UniProt Q13261 31-205, limits assumed); test: SPR 37C, fusion captured by anti-human Fc
T2 construct: also called hIL-15Rα; IL-15 receptor alpha
T2 sequence (Q13261 31-205 limits assumed): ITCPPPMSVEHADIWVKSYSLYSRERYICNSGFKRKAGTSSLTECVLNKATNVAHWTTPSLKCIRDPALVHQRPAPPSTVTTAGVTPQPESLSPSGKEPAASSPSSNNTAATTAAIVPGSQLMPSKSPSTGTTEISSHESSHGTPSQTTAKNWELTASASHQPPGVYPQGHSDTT
Description: (§1) Anti-human Fc sensor chips were prepared at 25° C. with a running buffer of 10 mM HEPES, 150 mM NaCl, 0.05% (v/v) Tween-20, pH 7.4. All surfaces of a Biacore CM4 sensor chip were activated with a 1:1 (v/v) mixture of 400 mM EDC and 100 mM NHS for 7 minutes, at a flow rate of 10 μL/min. An anti-human Fc reagent (Goat anti-human IgG Fc-γ specific, SouthernBiotech, Birmingham, Ala., Catalog #2014-01) was diluted to 50 μg/mL in 10 mM sodium acetate (pH 4.5) and injected on all flow cells for 7 minutes at 20 μL/min. All flow cells were blocked with 100 mM ethylenediamine in 200 mM Borate buffer pH 8.5 for 7 minutes at 10 μL/min.
(§2) All protein interaction experiments were performed at 37° C. using a running buffer of 10 mM HEPES, 150 mM NaCl, 0.05% (v/v) Tween-20, pH 7.4, 1 mg/mL BSA. Anti-PD-1-hIL-15 fusion proteins were captured at 10 μg/mL at a flow rate of 10 μL/min for 2 minutes. Different fusion proteins were captured in flow cells 2, 3 and 4. No protein was captured onto flow cell 1 which was used as a reference surface. […] After each analyte injection, dissociation was monitored for 5 minutes followed by regeneration of all flow cells with three 60-second injections of 75 mM phosphoric acid. […] For kinetic analysis, the double-referenced sensorgrams were fit globally to a simple 1:1 Langmuir with mass transport binding model using Biacore T200 Evaluation Software version 2.0. For steady-state affinity analysis, the double-referenced equilibrium binding responses were fit with a 1:1 Langmuir steady-state model using Biacore T200 Evaluation Software version 2.0.

[2] = target: T1, human IL-2Rβ; test: SPR, fusion captured
Description: as §1, §2

Binder	binding result [1]	Kd [2] [nM]
xmPD-1-hIL15 V49R/E46G/E64Q/D30N/M109A (other, not restated for this mutant) heavy 1: HHHHHHHHGGGGSGSGGEVQLVESGGGLVKPGGSLELSCAASGFTFSSYWMSWVRQAPEKGLEWVAAISPSGGSTYYADSVKGRFTISRDNAKNTLFLQMTSLRSEDTAMYYCAKESWGAYYDLWGQGTTVTVSSASTKGPSVFPLAPCSRSTSESTAALGCLVKDYFPEPVTVSWNSGALTSGVHTFPAVLQSSGLYSLSSVVTVPSSNFGTQTYTCNVDHKPSNTKVDKTVERKCRVRCPRCPAPPVAGPSVFLFPPKPKDTLMISRTPEVTCVVVAVSHEDPEVQFNWYVDGVEVHNAKTKPREEQFNSTFRVVSVLTVVHQDWLNGKEYKCKVSNKGLPSSIEKTISKTKGQPREPQVYTLPPSREEMTKNQVSLTCLVKGFYPSDIAVEWESNGQPENNYKTTPPMLDSDGSFFLYSRLTVDKSRWQQGNVFSCSVMHEALHNHYTQKSLSLSPGK heavy 2: EVQLVESGGGLVKPGGSLELSCAASGFTFSSYWMSWVRQAPEKGLEWVAAISPSGGSTYYADSVKGRFTISRDNAKNTLFLQMTSLRSEDTAMYYCAKESWGAYYDLWGQGTTVTVSSASTKGPSVFPLAPCSRSTSESTAALGCLVKDYFPEPVTVSWNSGALTSGVHTFPAVLQSSGLYSLSSVVTVPSSNFGTQTYTCNVDHKPSNTKVDKTVERKCEVECPECPAPPVAGPSVFLFPPKPKDTLMISRTPEVTCVVVAVSHEDPEVQFNWYVDGVEVHNAKTKPREEQFNSTFRVVSVLTVVHQDWLNGKEYKCKVSNKGLPSSIEKTISKTKGQPREPQVYTLPPSREEMTKNQVSLTCEVKGFYPSDIAVEWESNGQPENNYKTTPPMLDSDGSFFLYSKLTVDKSRWQQGNVFSCSVMHEALHNHYTQKSLSLSPGSGGGGGTSATATPGANWVNVISDLKKIEDLIQSMHIDATLYTESNVHPSCKVTAMKCFLLGLQRISLESGDASIHDTVQNLIILANNSLSSNGNVTESGCKECEELEEKNIKEFLQSFVHIVQAFINT light: DIVMTQSPSSLSVSAGDKVTMSCRASQGISSWLAWYQQKPWQPPKLLIYKASTLESGVPDRFTGSGSGTDFTLTISSVQAEDLAVYYCQQSYSTPWTFGGGTKLEIKGTVAAPSVFIFPPSDEQLKSGTASVVCLLNNFYPREAKVQWKVDNALQSGNSQESVTEQDSKDSTYSLSSTLTLSKADYEKHKVYACEVTHQGLSSPVTKSFNRGEC	no binding (tested: 3000 nM)	> 3000
xmPD-1-hIL15 V49R/E46G/N1G/N4Q/D30N (other) heavy 1: EVQLVESGGGLVKPGGSLELSCAASGFTFSSYWMSWVRQAPEKGLEWVAAISPSGGSTYYADSVKGRFTISRDNAKNTLFLQMTSLRSEDTAMYYCAKESWGAYYDLWGQGTTVTVSSASTKGPSVFPLAPSSKSTSGGTAALGCLVKDYFPEPVTVSWNSGALTSGVHTFPAVLQSSGLYSLSSVVTVPSSSLGTQTYICNVNHKPSNTKVDKKVEPKSCDKTHTCPPCPAPEAAGAPSVFLFPPKPKDTLMISRTPEVTCVVVDVSHEDPEVKFNWYVDGVEVHNAKTKPREEQYNSTYRVVSVLTVLHQDWLNGKEYKCKVSNKALPAPIEKTISKAKGQPREPQVYTLPPCREEMTKNQVSLSCAVKGFYPSDIAVEWESNGQPENNYKTTPPVLDSDGSFFLVSKLTVDKSRWQQGNVFSCSVMHEALHNHYTQKSLSLSPGSGGGGSGGGGSGGGGGWVQVISDLKKIEDLIQSMHIDATLYTESNVHPSCKVTAMKCFLLGLQRISLESGDASIHDTVENLIILANNSLSSNGNVTESGCKECEELEEKNIKEFLQSFVHIVQMFINTS heavy 2: EVQLVESGGGLVKPGGSLELSCAASGFTFSSYWMSWVRQAPEKGLEWVAAISPSGGSTYYADSVKGRFTISRDNAKNTLFLQMTSLRSEDTAMYYCAKESWGAYYDLWGQGTTVTVSSASTKGPSVFPLAPSSKSTSGGTAALGCLVKDYFPEPVTVSWNSGALTSGVHTFPAVLQSSGLYSLSSVVTVPSSSLGTQTYICNVNHKPSNTKVDKKVEPKSCDKTHTCPPCPAPEAAGAPSVFLFPPKPKDTLMISRTPEVTCVVVDVSHEDPEVKFNWYVDGVEVHNAKTKPREEQYNSTYRVVSVLTVLHQDWLNGKEYKCKVSNKALPAPIEKTISKAKGQPREPQVCTLPPSREEMTKNQVSLWCLVKGFYPSDIAVEWESNGQPENNYKTTPPVLDSDGSFFLYSKLTVDKSRWQQGNVFSCSVMHEALHNHYTQKSLSLSPGK light: DIVMTQSPSSLSVSAGDKVTMSCRASQGISSWLAWYQQKPWQPPKLLIYKASTLESGVPDRFTGSGSGTDFTLTISSVQAEDLAVYYCQQSYSTPWTFGGGTKLEIKGTVAAPSVFIFPPSDEQLKSGTASVVCLLNNFYPREAKVQWKVDNALQSGNSQESVTEQDSKDSTYSLSSTLTLSKADYEKHKVYACEVTHQGLSSPVTKSFNRGEC		> 1500
xmPD-1-hIL15Rasu-hIL15(E64Q/D30N/I68S/M109A) (other, not restated for this mutant) heavy 1: HHHHHHHHGGGGSGSGGEVQLVESGGGLVKPGGSLELSCAASGFTFSSYWMSWVRQAPEKGLEWVAAISPSGGSTYYADSVKGRFTISRDNAKNTLFLQMTSLRSEDTAMYYCAKESWGAYYDLWGQGTTVTVSSASTKGPSVFPLAPCSRSTSESTAALGCLVKDYFPEPVTVSWNSGALTSGVHTFPAVLQSSGLYSLSSVVTVPSSNFGTQTYTCNVDHKPSNTKVDKTVERKCRVRCPRCPAPPVAGPSVFLFPPKPKDTLMISRTPEVTCVVVAVSHEDPEVQFNWYVDGVEVHNAKTKPREEQFNSTFRVVSVLTVVHQDWLNGKEYKCKVSNKGLPSSIEKTISKTKGQPREPQVYTLPPSREEMTKNQVSLTCLVKGFYPSDIAVEWESNGQPENNYKTTPPMLDSDGSFFLYSRLTVDKSRWQQGNVFSCSVMHEALHNHYTQKSLSLSPGK heavy 2: EVQLVESGGGLVKPGGSLELSCAASGFTFSSYWMSWVRQAPEKGLEWVAAISPSGGSTYYADSVKGRFTISRDNAKNTLFLQMTSLRSEDTAMYYCAKESWGAYYDLWGQGTTVTVSSASTKGPSVFPLAPCSRSTSESTAALGCLVKDYFPEPVTVSWNSGALTSGVHTFPAVLQSSGLYSLSSVVTVPSSNFGTQTYTCNVDHKPSNTKVDKTVERKCEVECPECPAPPVAGPSVFLFPPKPKDTLMISRTPEVTCVVVAVSHEDPEVQFNWYVDGVEVHNAKTKPREEQFNSTFRVVSVLTVVHQDWLNGKEYKCKVSNKGLPSSIEKTISKTKGQPREPQVYTLPPSREEMTKNQVSLTCEVKGFYPSDIAVEWESNGQPENNYKTTPPMLDSDGSFFLYSKLTVDKSRWQQGNVFSCSVMHEALHNHYTQKSLSLSPGSGGGGGTSATATPGAITCPPPMSVEHADIWVKSYSLYSRERYICNSGFKRKAGTSSLTECVLNKATNVAHWTTPSLKCIRDPALVHQRPAPPSGGSGGGGSGGGSGGGGSGGNWVNVISDLKKIEDLIQSMHIDATLYTESNVHPSCKVTAMKCFLLELQVISLESGDASIHDTVQNLISLANNSLSSNGNVTESGCKECEELEEKNIKEFLQSFVHIVQAFINT light: DIVMTQSPSSLSVSAGDKVTMSCRASQGISSWLAWYQQKPWQPPKLLIYKASTLESGVPDRFTGSGSGTDFTLTISSVQAEDLAVYYCQQSYSTPWTFGGGTKLEIKGTVAAPSVFIFPPSDEQLKSGTASVVCLLNNFYPREAKVQWKVDNALQSGNSQESVTEQDSKDSTYSLSSTLTLSKADYEKHKVYACEVTHQGLSSPVTKSFNRGEC	no binding (tested: 3000 nM)	> 1500
xmPD-1-hIL15Rasu-hIL15(E64Q/D30N/I68S) (other, not restated for this mutant) heavy 1: HHHHHHHHGGGGSGSGGEVQLVESGGGLVKPGGSLELSCAASGFTFSSYWMSWVRQAPEKGLEWVAAISPSGGSTYYADSVKGRFTISRDNAKNTLFLQMTSLRSEDTAMYYCAKESWGAYYDLWGQGTTVTVSSASTKGPSVFPLAPCSRSTSESTAALGCLVKDYFPEPVTVSWNSGALTSGVHTFPAVLQSSGLYSLSSVVTVPSSNFGTQTYTCNVDHKPSNTKVDKTVERKCRVRCPRCPAPPVAGPSVFLFPPKPKDTLMISRTPEVTCVVVAVSHEDPEVQFNWYVDGVEVHNAKTKPREEQFNSTFRVVSVLTVVHQDWLNGKEYKCKVSNKGLPSSIEKTISKTKGQPREPQVYTLPPSREEMTKNQVSLTCLVKGFYPSDIAVEWESNGQPENNYKTTPPMLDSDGSFFLYSRLTVDKSRWQQGNVFSCSVMHEALHNHYTQKSLSLSPGK heavy 2: EVQLVESGGGLVKPGGSLELSCAASGFTFSSYWMSWVRQAPEKGLEWVAAISPSGGSTYYADSVKGRFTISRDNAKNTLFLQMTSLRSEDTAMYYCAKESWGAYYDLWGQGTTVTVSSASTKGPSVFPLAPCSRSTSESTAALGCLVKDYFPEPVTVSWNSGALTSGVHTFPAVLQSSGLYSLSSVVTVPSSNFGTQTYTCNVDHKPSNTKVDKTVERKCEVECPECPAPPVAGPSVFLFPPKPKDTLMISRTPEVTCVVVAVSHEDPEVQFNWYVDGVEVHNAKTKPREEQFNSTFRVVSVLTVVHQDWLNGKEYKCKVSNKGLPSSIEKTISKTKGQPREPQVYTLPPSREEMTKNQVSLTCEVKGFYPSDIAVEWESNGQPENNYKTTPPMLDSDGSFFLYSKLTVDKSRWQQGNVFSCSVMHEALHNHYTQKSLSLSPGSGGGGGTSATATPGAITCPPPMSVEHADIWVKSYSLYSRERYICNSGFKRKAGTSSLTECVLNKATNVAHWTTPSLKCIRDPALVHQRPAPPSGGSGGGGSGGGSGGGGSGGNWVNVISDLKKIEDLIQSMHIDATLYTESNVHPSCKVTAMKCFLLELQVISLESGDASIHDTVQNLISLANNSLSSNGNVTESGCKECEELEEKNIKEFLQSFVHIVQMFINT light: DIVMTQSPSSLSVSAGDKVTMSCRASQGISSWLAWYQQKPWQPPKLLIYKASTLESGVPDRFTGSGSGTDFTLTISSVQAEDLAVYYCQQSYSTPWTFGGGTKLEIKGTVAAPSVFIFPPSDEQLKSGTASVVCLLNNFYPREAKVQWKVDNALQSGNSQESVTEQDSKDSTYSLSSTLTLSKADYEKHKVYACEVTHQGLSSPVTKSFNRGEC	no binding (tested: 3000 nM)	> 3000
